These are literature values, as cited in publication PMC7930624.

This data set addresses ACE2 (Homo sapiens) (UniProt Q9BYF1).

Where “and” joins values, the source holds several entries; their conditions need not be identical. Equal entries are not always repeated.

Sequence of ACE2 (Homo sapiens) (Q9BYF1 18-740): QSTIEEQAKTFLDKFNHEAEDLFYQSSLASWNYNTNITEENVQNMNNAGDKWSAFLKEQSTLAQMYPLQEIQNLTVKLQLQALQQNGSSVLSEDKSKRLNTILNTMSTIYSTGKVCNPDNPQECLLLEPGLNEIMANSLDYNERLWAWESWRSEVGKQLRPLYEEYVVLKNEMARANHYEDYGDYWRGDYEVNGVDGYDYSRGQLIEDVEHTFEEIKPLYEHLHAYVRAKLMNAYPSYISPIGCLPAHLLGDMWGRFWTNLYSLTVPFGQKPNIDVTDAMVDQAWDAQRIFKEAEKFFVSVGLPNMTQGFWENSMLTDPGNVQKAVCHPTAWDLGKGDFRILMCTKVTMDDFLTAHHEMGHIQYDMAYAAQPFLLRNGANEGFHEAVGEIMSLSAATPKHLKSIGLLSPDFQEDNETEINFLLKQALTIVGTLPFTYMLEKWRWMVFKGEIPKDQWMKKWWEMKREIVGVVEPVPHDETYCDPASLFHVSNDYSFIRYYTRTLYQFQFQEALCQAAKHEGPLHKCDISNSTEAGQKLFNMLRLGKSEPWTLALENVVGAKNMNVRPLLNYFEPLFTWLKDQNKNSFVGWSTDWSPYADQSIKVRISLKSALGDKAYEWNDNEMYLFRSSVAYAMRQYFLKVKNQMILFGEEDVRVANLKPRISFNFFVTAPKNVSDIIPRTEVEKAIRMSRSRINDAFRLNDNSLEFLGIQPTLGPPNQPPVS
Sequence of Human defensin-5 (Q01523 63-94): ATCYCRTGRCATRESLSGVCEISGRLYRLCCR

Broadly, the Kd is the constant that tells how readily two partners part at equilibrium. For the substance Human defensin-5 (from UniProt Q01523), the Kd is 39.3 nM and 76.2 nM.
